Results reported in US20260035464A1 (STAIDSON BIOPHARMA, published 2026).

Legend:
[1] = target: human BTLA (Uniprot Q7Z6A9) expressed on cells (human, UniProt Q7Z6A9 31-289); assay: cell-based or functional assay
[2] = target: T1, huBTLA as coated in the binding ELISA of Example 3 (tag not stated) (human, UniProt Q7Z6A9 31-157); assay: ELISA, huBTLA coated at 0.333 ug/mL, anti-human IgG Fc-AP detection
T1 construct: Detection was with anti-human IgG Fc
T1 sequence: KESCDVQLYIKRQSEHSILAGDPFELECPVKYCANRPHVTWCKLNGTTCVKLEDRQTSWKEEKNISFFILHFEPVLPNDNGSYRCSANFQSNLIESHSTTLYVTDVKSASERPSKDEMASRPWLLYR
Procedure: (§1) BTLA binding of purified recombinant chimeric antibodies by ELISA: The huBTLA and rhesus monkey BTLA antigen binding ELISA was performed on the purified recombinant chimeric antibodies. Briefly, 384-well, clear flat bottom high binding plates (Corning, cat #3700) were coated overnight at 4° C. with 0.333 μg/mL of huBTLA or rhesus monkey BTLA in PBS. The following purified process was performed as described in ELISA binding assay in Example 2, except that the secondary antibody was goat anti human IgG Fc-AP (Southern Biotech, cat #2014-04).

[3] = target: T2, rhesus monkey BTLA extracellular domain protein with His tag (Sino Biological, cat #90250-C08H) (rhesus monkey, UniProt G7MKA9 31-157); assay: ELISA, plate coated with rhesus monkey BTLA, detection with goat anti-human IgG Fc-AP, OD405
T2 construct: extracellular domain; Bought protein; also called His-tag-rhesus monkey BTLA; not shown: His tag
T2 sequence: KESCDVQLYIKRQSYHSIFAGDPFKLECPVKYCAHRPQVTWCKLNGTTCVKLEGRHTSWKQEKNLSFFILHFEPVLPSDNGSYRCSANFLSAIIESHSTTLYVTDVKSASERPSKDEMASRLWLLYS
Procedure: as §1

[4] = target: T3, human BTLA extracellular domain with C-terminal mouse IgG2a Fc tag (human; mouse, UniProt Q7Z6A9 31-157); assay: blocking ELISA, huBTLA-mIgG2a Fc coated; competitor huHVEM-His (2 ug/ml)
T3 construct: also called huBTLA with mIgG2a Fc tag; not shown: mouse IgG2a Fc, C-terminal
T3 sequence: T1 sequence
Procedure: HVEM blocking by purified recombinant chimeric antibodies by ELISA: Human HVEM (huHVEM) blocking ELISA was performed on purified recombinant chimeric anti-BTLA antibodies. Briefly, 384-well, clear flat bottom high binding plates (Corning, cat #3700) were coated overnight at 4° C. with 0.333 μg/mL purified huBTLA with mIgG2a Fc tag in PBS (coating solution). After removing the coating solution, the plates were blocked by adding blocking buffer and incubated at 37° C. for 1 hour. Plates were then washed 3 times with wash buffer. Serial dilution of purified chimeric antibodies in PBS were added to individual well followed by incubation at 37° C. for 1 hour. Plates were washed 3 times with wash buffer. Then 30 μL per well of 2 μg/ml human HVEM with His tag (Sino Biological, cat #10334-H08H) in assay buffer was added into the reaction and incubated for 1 hour. Plates were washed 3 times with wash buffer. Then 30 μL per well of mouse anti-his-AP (Southern Biotech, cat: 4603-04) at 1:500 dilution in ELISA diluent was added, and incubated at 37° C. for 30 min, then the plates were washed 5 times with wash buffer and developed for 30 minutes with 30 μL per well of pNPP substrate. Plates were analyzed with a Bio-TEK at 405 nm. The blocking IC₅₀ value represents the antibody concentration that inhibited 50% of huHVEM binding to coated human BTLA.

B1: chimeric anti-BTLA antibody 86B7 (antibody, V domains shown)
VH: QVTLKESGPGILQPSQTLSLTCSFSGFSLSTFGMGVSWIRQPSGKGLEWLAHIYWDDDKRFNPSLKSRLSISKDTSNNQVFLKITTVDTADTATYYCARGNWDGETYFDYWGQGTTLTVSS
VL: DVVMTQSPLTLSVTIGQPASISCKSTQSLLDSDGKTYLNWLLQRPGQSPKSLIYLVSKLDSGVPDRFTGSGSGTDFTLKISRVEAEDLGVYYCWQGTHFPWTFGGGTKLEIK
- EC50 of recovery of IL-2 production, Raji-HVEM/Jurkat-BTLA coculture [1]: 0.554 nM
- EC50 [2]: 0.0511 nM
- EC50 (read off the curve) [3]: ~0.4 nM
- IC50 [4]: 1.02 nM
